In patent publication US20100003258A1 (AVEO PHARMACEUTICALS, published 2010):

T1: recombinant human FGFR3 IIIb Fc fusion protein (human, UniProt P22607-2 23-377, limits assumed)
T1 construct: Bought reagent; the IIIb splice isoform is meant; also called rhFGFR3 IIIb Fc; hFGFR3 IIIb; not shown: Fc fragment (removable by Factor Xa, detected with anti-human IgG)
T1 sequence (looked up): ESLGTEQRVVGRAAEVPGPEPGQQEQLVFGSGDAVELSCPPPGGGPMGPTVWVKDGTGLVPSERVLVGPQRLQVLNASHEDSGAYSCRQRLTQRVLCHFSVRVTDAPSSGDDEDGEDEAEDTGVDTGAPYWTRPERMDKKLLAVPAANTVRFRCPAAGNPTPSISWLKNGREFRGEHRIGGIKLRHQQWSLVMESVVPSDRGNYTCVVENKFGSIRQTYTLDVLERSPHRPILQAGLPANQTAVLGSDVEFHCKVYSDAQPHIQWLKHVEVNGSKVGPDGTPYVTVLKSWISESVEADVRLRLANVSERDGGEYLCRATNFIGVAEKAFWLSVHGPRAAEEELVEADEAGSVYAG

T2: recombinant human FGFR3 IIIc Fc fusion protein (human, UniProt P22607 23-375)
T2 construct: Bought reagent; also called rhFGFR3 IIIc Fc; not shown: Fc fragment (removable by Factor Xa)
T2 sequence (looked up): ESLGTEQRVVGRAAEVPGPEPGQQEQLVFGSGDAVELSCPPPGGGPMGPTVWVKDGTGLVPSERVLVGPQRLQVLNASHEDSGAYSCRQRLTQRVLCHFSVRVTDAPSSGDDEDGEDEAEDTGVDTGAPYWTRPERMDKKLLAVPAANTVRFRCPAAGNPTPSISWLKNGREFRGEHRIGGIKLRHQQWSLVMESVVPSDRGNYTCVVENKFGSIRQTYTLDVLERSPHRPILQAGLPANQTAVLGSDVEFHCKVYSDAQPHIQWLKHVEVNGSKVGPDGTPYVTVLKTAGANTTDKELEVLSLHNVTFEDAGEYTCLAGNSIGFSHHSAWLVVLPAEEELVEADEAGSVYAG


Legend:
[1] = molecular target: T1, recombinant human FGFR3 IIIb Fc fusion …; assay: ECL competition assay: inhibition of rhFGFR3 IIIb Fc binding to coated FGF1 (competitor FGF1)
Experimental: The antibodies were tested by ECL (Electrochemiluminescence) assay for inhibition of hFGFR3 IIIB binding to FGF-1. […] The plates then were washed 3 times with PBS and blocked with 200 μl of PBS containing 5% BSA (Sera Care Life Sciences, Catalog No. AP-4510-80) and 5 μg/mL heparin (Sigma, Catalog No. H4784) for 1 hour at room temperature. The antibodies (concentration range: 0.029-30 μg/mL) were incubated for 1 hour at room temperature with 1.7 μg/mL rhFGFR3 IIIb Fc (R&D Systems, Catalog No. 1264-FR-050) and 5 μg/mL heparin. After washing the plates 3 times with PBS, 25 μl of the antibody-receptor mixture was added to the plates for another hour at room temperature with agitation. The plates were washed three times with PBS and incubated with 25 μl of 1 μg/mL ST-anti-human IgG antibody (Meso Scale Discovery, Catalog No. R32AJ-1) for 1 hour at room temperature with agitation. The plates then were washed 3 times with PBS, and 150 μl of 1× read buffer (Meso Scale Discovery, Catalog No. R92TC-1) was added to each well before the plates were analyzed on a Sector Imager 2400 (Meso Scale Discovery) instrument.

[2] = molecular target: T2, recombinant human FGFR3 IIIc Fc fusion …; assay: SPR (Biacore T100), antibody captured on anti-mouse Ig, rhFGFR3 IIIc Fc as analyte, 37 C
Experimental: (§1) The binding affinities and kinetics of interaction of the monoclonal antibodies (15D8, 27H2, 2G4, and 4E7(7D12)) produced in Example 1 against recombinant human FGFR3 (IIIb and IIIc isoforms) Fc fusion protein (rhFGFR3 IIIb Fc or rhFGFR3 IIIc Fc) were measured by surface plasmon resonance using a Biacore™ T100 (Biacore) instrument.
(§2) Rabbit anti-mouse immunoglobulins (Biacore, Catalog No. BR-1005-14) were immobilized on carboxymethylated dextran CM4 sensor chips (Biacore, Catalog No. BR-1005-34) by amine coupling (Biacore, Catalog No. BR-1000-50) using a standard coupling protocol according to manufacturer's instructions.
(§3) The antibodies were captured in an individual flow cell at a flow rate of 10 μl/min. Injection time was varied for each antibody to yield approximately 40-50 RU of antibody captured for each cycle. Buffer or rhFGFR3 IIIb Fc (R&D Systems, Catalog No. 1264-FR-050) or rhFGFR3 IIIc Fc (R&D Systems, Catalog No. 766-FR-050) diluted in running buffer was injected sequentially over a reference surface (no antibody captured) and the active surface (antibody to be tested) for 300 sec at 60 μl/min. The dissociation phase was monitored for 30 minutes. The surface was then regenerated with two 60-seconds injection of 10 mM Glycine-HCl, pH 1.7 (made from Glycine pH 1.5 (Biacore, Catalog No. BR-1003-54) and pH 2.0 (Biacore, Catalog No. BR-1003-55)) at a flow rate of 60 μl/min. rhFGFR3 Fc concentrations tested were 0.62 nM to 40 nM.

[3] = molecular target: T2, recombinant human FGFR3 IIIc Fc fusion …; assay: SPR (Biacore T100), antibody captured on anti-mouse Ig, rhFGFR3 IIIc Fc as analyte, 25 C
Experimental: as §1, §2, §3

[4] = molecular target: T1, recombinant human FGFR3 IIIb Fc fusion …; assay: SPR (Biacore T100), antibody captured on anti-mouse Ig, rhFGFR3 IIIb Fc as analyte, 37 C
Experimental: as §1, §2, §3

[5] = molecular target: T1, recombinant human FGFR3 IIIb Fc fusion …; assay: SPR (Biacore T100), antibody captured on anti-mouse Ig, rhFGFR3 IIIb Fc as analyte, 25 C
Experimental: as §1, §2, §3

Row | IC50 [1] | Maximum Neutralization (%) [1] | Kd [2] | koff [2] | kon [2] | Kd [3] | koff [3] | kon [3] | Kd [4] | koff [4] | kon [4] | Kd [5] | koff [5] | kon [5] | Binder
1 | 18.5 nM | 91.2% | 2.2 nM | 0.00017 s⁻¹ | 94000 M⁻¹ s⁻¹ | 2.6 nM | 0.00019 s⁻¹ | 110000 M⁻¹ s⁻¹ | 3.3 nM | 0.00023 s⁻¹ | 74000 M⁻¹ s⁻¹ | 3.3 nM | 0.00037 s⁻¹ | 150000 M⁻¹ s⁻¹ | anti-FGFR3 monoclonal antibody 4E7 (antibody, mouse IgG1, kappa, V domains shown, Murine IgG1/kappa from hybridoma; also called 4E7 IgG1; 4E7 (7D12)) VH: EIQLQQSGPELVKPGASVKVSCKASGYAFTSYNMYWVKQSHGKSLEWIGYIDPYNGGTRYNQKFKGKATLTVDKSSSTAYMHLNSLTSEDSAVYYCAREGGNYEAWFAYWGQGTLVTVSA VL: QIVLTQSPALMSASPGEKVTMTCSASSSVSYMYWYQQKPRSSPKPWIYLTSNLASGVPARFSGSGSGTSYSLTISSMEAEDAATYYCQQWSSNPLTFGAGTKLELKR
2 | 50 nM | 88.8% | – | – | – | – | – | – | – | – | – | – | – | – | 7D12 Fab (Fab, V domains shown, not shown: a dimerising Fc or GST, preparation not described; also called anti-FGFR3 Fab fragment 7D12) VH: EIQLQQSGPELVKPGASVKVSCKASGYAFTSYNMYWVKQSHGKSLEWIGYIDPYNGGTRYNQKFKGKATLTVDKSSSTAYMHLNSLTSEDSAVYYCAREGGNYEAWFAYWGQGTLVTVSA VL: QIVLTQSPALMSASPGEKVTMTCSASSSVSYMYWYQQKPRSSPKPWIYLTSNLASGVPARFSGSGSGTSYSLTISSMEAEDAATYYCQQWSSNPLTFGAGTKLELKR
3 | 13.3 nM | 93.9% | – | – | – | – | – | – | – | – | – | – | – | – | anti-FGFR3 monoclonal antibody 7D12 (antibody, mouse IgG1, kappa, V domains shown, Murine IgG1/kappa from a separate hybridoma; also called 7D12 IgG1; 4E7 (7D12)) VH: EIQLQQSGPELVKPGASVKVSCKASGYAFTSYNMYWVKQSHGKSLEWIGYIDPYNGGTRYNQKFKGKATLTVDKSSSTAYMHLNSLTSEDSAVYYCAREGGNYEAWFAYWGQGTLVTVSA VL: QIVLTQSPALMSASPGEKVTMTCSASSSVSYMYWYQQKPRSSPKPWIYLTSNLASGVPARFSGSGSGTSYSLTISSMEAEDAATYYCQQWSSNPLTFGAGTKLELKR
4 | 69.5 nM | 92.2% | – | – | – | – | – | – | – | – | – | – | – | – | 4E7 Fab (Fab, V domains shown, not shown: a dimerising Fc or GST, Fab fragment of murine 4E7; preparation not described; also called anti-FGFR3 Fab fragment 4E7) VH: EIQLQQSGPELVKPGASVKVSCKASGYAFTSYNMYWVKQSHGKSLEWIGYIDPYNGGTRYNQKFKGKATLTVDKSSSTAYMHLNSLTSEDSAVYYCAREGGNYEAWFAYWGQGTLVTVSA VL: QIVLTQSPALMSASPGEKVTMTCSASSSVSYMYWYQQKPRSSPKPWIYLTSNLASGVPARFSGSGSGTSYSLTISSMEAEDAATYYCQQWSSNPLTFGAGTKLELKR
5 | 63.8 nM | 91.7% | – | – | – | – | – | – | – | – | – | – | – | – | 15D8 Fab (Fab, V domains shown, not shown: a dimerising Fc or GST, Fab fragment of murine 15D8; preparation not described; also called anti-FGFR3 Fab fragment 15D8) VH: EIQLQQSGPELVKPGASVKVSCKASGYAFTSYNMYWVKQSHGKSLEWIGYIDPYNGGTSYNQKFKGKATLTVDKSSSTAYMHLNSLTSEDSAVYYCAREGGNYEAWFAYWGQGTLVTVSA VL: QIVLTQSPALMSASPGEKVTMTCSASSSVSYMYWYQQKPRSSPKPWIYLTSYLASGVPARFSGSGSGTSYSLTISSMEAEDAATYYCQQWSSYPLTFGAGTKLELKR
6 | 65 nM | 96.2% | – | – | – | – | – | – | – | – | – | – | – | – | 2G4 Fab (Fab, V domains shown, not shown: a dimerising Fc or GST, Fab fragment of murine 2G4; preparation not described; also called anti-FGFR3 Fab fragment 2G4) VH: EIQLQQSGPELVKPGASVKVSCKASGYAFTSYNMYWVKQSHGKSLEWIGYIDPYNGGTRDNQKFKGKATLTVDKSSSTAYMHLNSLTSEDSAVYYCAREGGNYEAWFAYWGQGTLVTVSA VL: QIVLTQSPALMSASPGEKVTMTCSASSSVSYMYWYQQKPRSSPKPWIYLTSNLASGVPARFSGSGSGTSYSLTISSMEAEDAATYYCQQWSSNPLTFGAGTKLELKR
7 | 11.1 nM | 64.9% | 2.6 nM | 0.00026 s⁻¹ | 100000 M⁻¹ s⁻¹ | 1.1 nM | 0.00011 s⁻¹ | 100000 M⁻¹ s⁻¹ | 1.4 nM | 0.00023 s⁻¹ | 150000 M⁻¹ s⁻¹ | 3.2 nM | 0.00032 s⁻¹ | 120000 M⁻¹ s⁻¹ | anti-FGFR3 monoclonal antibody 2G4 (antibody, mouse IgG1, kappa, V domains shown, Murine IgG1/kappa from hybridoma; also called 2G4 IgG1; murine antibody 2G4) VH: EIQLQQSGPELVKPGASVKVSCKASGYAFTSYNMYWVKQSHGKSLEWIGYIDPYNGGTRDNQKFKGKATLTVDKSSSTAYMHLNSLTSEDSAVYYCAREGGNYEAWFAYWGQGTLVTVSA VL: QIVLTQSPALMSASPGEKVTMTCSASSSVSYMYWYQQKPRSSPKPWIYLTSNLASGVPARFSGSGSGTSYSLTISSMEAEDAATYYCQQWSSNPLTFGAGTKLELKR
8 | 53.5 nM | 95.8% | – | – | – | – | – | – | – | – | – | – | – | – | 27H2 Fab (Fab, V domains shown, not shown: a dimerising Fc or GST, Fab fragment of murine 27H2; preparation not described; also called anti-FGFR3 Fab fragment 27H2) VH: EIQLQQSGPELVKPGASVKVSCKASGYAFTSYNMYWVKQSHGKSLEWIGYIDPYNGGTRYNQKFKGKATMTVDKSSSTAYMHLNSLTSEDSAVYYCAREGGNYEAWFAYWGQGTLVTVSA VL: QIVLTQSPALMSASPGEKVTMTCSASSSVSYMYWYQQKPRSSPKPWIYLTSNLASGVPARFSGSGSGTSYSLTISSMEAEDAATYYCQQWSSNPLTFGAGTKLELKR
9 | 15.4 nM | 99.6% | 2.1 nM | 0.0002 s⁻¹ | 96000 M⁻¹ s⁻¹ | 2.1 nM | 0.00016 s⁻¹ | 75000 M⁻¹ s⁻¹ | 2.1 nM | 0.00019 s⁻¹ | 100000 M⁻¹ s⁻¹ | 3 nM | 0.00026 s⁻¹ | 90000 M⁻¹ s⁻¹ | anti-FGFR3 monoclonal antibody 27H2 (antibody, mouse IgG1, kappa, V domains shown, Murine IgG1/kappa from hybridoma; also called 27H2 IgG1; murine antibody 27H2) VH: EIQLQQSGPELVKPGASVKVSCKASGYAFTSYNMYWVKQSHGKSLEWIGYIDPYNGGTRYNQKFKGKATMTVDKSSSTAYMHLNSLTSEDSAVYYCAREGGNYEAWFAYWGQGTLVTVSA VL: QIVLTQSPALMSASPGEKVTMTCSASSSVSYMYWYQQKPRSSPKPWIYLTSNLASGVPARFSGSGSGTSYSLTISSMEAEDAATYYCQQWSSNPLTFGAGTKLELKR
